Data: article PMC5171940 (2016)
Where no end group is shown, it is not given here.

How the values were obtained:
[1] = molecular target: Aβ oligomers: soluble prefibrillar aggregates of biotinylated Aβ(1–42) (biotin (position not given)); experiment: SPR
[2] = molecular target: T1, Aβ monomers on the SPR chip: biotinylated Aβ 11–28 (also: biotin, position not given here); experiment: SPR
T1 chain: EVHHQKLVFFAEDVGSNK

Aβ oligomers: soluble prefibrillar aggregates of biotinylated Aβ(1–42) (biotin (position not given)), sequence (P05067 672-713): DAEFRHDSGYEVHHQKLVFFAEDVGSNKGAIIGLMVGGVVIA

B1: Crenezumab, fully humanized anti-Aβ monoclonal IgG4 (antibody, V domains shown)
VH: EVQLVESGGGLVQPGGSLRLSCAASGFTFSSYGMSWVRQAPGKGLELVASINSNGGSTYYPDSVKGRFTISRDNAKNSLYLQMNSLRAEDTAVYYCASGDYWGQGTTVTVSS
VL: DIVMTQSPLSLPVTPGEPASISCRSSQSLVYSNGDTYLHWYLQKPGQSPQLLIYKVSNRFSGVPDRFSGSGSGTDFTLKISRVEAEDVGVYYCSQSTHVPWTFGQGTKVEIK
Kd [1]: 0.42 nM | Kd [2]: 3.2 nM
